Test results as given in the supplement of paper PMC10598134.
± gives the standard deviation.

Test: collision cross section of modified peptide (TIMS, N2, iRT-aligned); higher = larger / more extended gas-phase ion
Procedure, shortened: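 Values are averages of 1–3 technical replicates of the most abundant feature for each charge state. Collision cross section was obtained from the Mason-Schamp equation after 1/K0 calibration with three reference ions and run-wise alignment to the median iRT peptide deviation. Synthetic peptide pools (iRT standard spiked 1:40) were separated on a 120-min nanoflow C18 gradient at 60 °C, analysed on a timsTOF Pro/HT (dda-PASEF, nitrogen, ~2.4 mbar) and identified with MaxQuant.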

[1] = charge state: 2, modification: Butyryl
[2] = charge state: 3, modification: Butyryl
[3] = charge state: 2, modification: Nitro (Y)
[4] = charge state: 2, modification: Trimethyl (K)
[5] = charge state: 3, modification: Trimethyl (K)
[6] = charge state: 2, modification: Phospho (Y)
[7] = charge state: 2, modification: Glutarylation
[8] = charge state: 3, modification: Glutarylation
[9] = charge state: 2, modification: hydroxyisobutyryl
[10] = charge state: 2, modification: Acetyl (K)
[11] = charge state: 3, modification: Formyl
[12] = charge state: 2, modification: Propionyl

## LEEVTGKLQVAR [_LEEVTGK(Butyryl)LQVAR_]
[1]
  collision cross section: 398.95 ± 0.23 Å²
[2]
  collision cross section: 467.68 Å²

## VFSIISSEKELK [_VFSIISSEK(Butyryl)ELK_]
[1]
  collision cross section: 413.27 ± 0.78 Å²

## LQNSYQPTNK [_LQNSY(Nitro (Y))QPTNK_]
[3]
  collision cross section: 362.69 ± 0.94 Å²

## GGPGSTLSFVGKR [_GGPGSTLSFVGK(Trimethyl (K))R_]
[4]
  collision cross section: 401.16 Å²
[5]
  collision cross section: 424.62 ± 2.4 Å²

## PATSYVR [_PATSY(Phospho (Y))VR_]
[6]
  collision cross section: 328.8 ± 0.068 Å²

## VSPASSVDSNIPSSQGYKK [_VSPASSVDSNIPSSQGYK(Butyryl)K_]
[1]
  collision cross section: 463.23 ± 2.7 Å²
[2]
  collision cross section: 559.88 ± 1.1 Å²

## SPSDSGYSYETIGKTTK [_SPSDSGYSYETIGK(Gluratylation)TTK_]
[7]
  collision cross section: 456.74 ± 1.5 Å²
[8]
  collision cross section: 531.96 ± 0.12 Å²

## VDIDAPDVSIEGPDAKLK [_VDIDAPDVSIEGPDAK(hydroxyisobutyryl)LK_]
[9]
  collision cross section: 475 ± 0.81 Å²

## ITESVAETAQTIKK [_ITESVAETAQTIK(Malonyl)K_]
Charge state: 2, modification: Malonyl
  collision cross section: 420.49 ± 0.57 Å²
Charge state: 3, modification: Malonyl
  collision cross section: 509.94 ± 1.1 Å²

## DASTLQSQKAEGTGDAK [_DASTLQSQK(Acetyl (K))AEGTGDAK_]
[10]
  collision cross section: 431.11 ± 1.6 Å²
Charge state: 3, modification: Acetyl (K)
  collision cross section: 508.84 ± 0.99 Å²

## DFDTALKHYDK [_DFDTALK(Gluratylation)HYDK_]
[7]
  collision cross section: 406.02 ± 0.63 Å²
[8]
  collision cross section: 469.01 ± 1.7 Å²

## RGFGFGGFAISAGK [_R(Methyl (R))GFGFGGFAISAGK_]
Charge state: 3, modification: Methyl (R)
  collision cross section: 488.52 ± 3.4 Å²

## LTEKELAEAASK [_LTEK(Dimethyl (K))ELAEAASK_]
Charge state: 2, modification: Dimethyl (K)
  collision cross section: 397.3 ± 0.55 Å²
Charge state: 3, modification: Dimethyl (K)
  collision cross section: 456.37 ± 5.1 Å²

## ITLSKHQNVQLPR [_ITLSK(Biotin)HQNVQLPR_]
Charge state: 3, modification: Biotin
  collision cross section: 502.67 Å²

## GFALVGVGSEASSKK [_GFALVGVGSEASSK(Formyl)K_]
Charge state: 2, modification: Formyl
  collision cross section: 409.61 ± 2 Å²
[11]
  collision cross section: 498.32 ± 1.8 Å²

## SGFGKFER [_SGFGK(Butyryl)FER_]
[1]
  collision cross section: 337.09 ± 1.2 Å²

## LLFSNTAAQKLR [_LLFSNTAAQK(Trimethyl (K))LR_]
[4]
  collision cross section: 428.25 ± 0.6 Å²
[5]
  collision cross section: 480.65 ± 2.4 Å²

## ANEKTESSSAQQVAVSR [_ANEK(Propionyl)TESSSAQQVAVSR_]
[12]
  collision cross section: 439.84 ± 1.6 Å²
Charge state: 3, modification: Propionyl
  collision cross section: 533.7 Å²

## TEVLSPNSKVESK [_TEVLSPNSK(Trimethyl (K))VESK_]
[4]
  collision cross section: 405.78 ± 0.61 Å²
[5]
  collision cross section: 479.92 ± 1.6 Å²

## IGNSYFKEEK [_IGNSYFK(Trimethyl (K))EEK_]
[4]
  collision cross section: 378.87 ± 0.63 Å²
[5]
  collision cross section: 441.97 ± 1.8 Å²

## STCTYVGAAK [_STCTY(Nitro (Y))VGAAK_]
[3]
  collision cross section: 340.86 ± 0.72 Å²

## LQLEIDQKK [_LQLEIDQK(Propionyl)K_]
[12]
  collision cross section: 368.05 ± 0.33 Å²

## LEKTIDDLEEK [_LEK(hydroxyisobutyryl)TIDDLEEK_]
[9]
  collision cross section: 411.13 ± 0.32 Å²

## VQFAPEKPGPQPSAETTR [_VQFAPEKPGP(Hydroxyproline)QPSAETTR_]
Charge state: 3, modification: Hydroxyproline
  collision cross section: 515.21 ± 1.2 Å²

## ASAISIKLGSSK [_ASAISIK(Acetyl (K))LGSSK_]
[10]
  collision cross section: 368.59 ± 0.51 Å²

## ATVASSTQKFQDLGVK [_ATVASSTQK(Methyl (K))FQDLGVK_]
Charge state: 2, modification: Methyl (K)
  collision cross section: 464.26 ± 2.2 Å²
Charge state: 3, modification: Methyl (K)
  collision cross section: 478.87 ± 3.4 Å²

## VFIGNLNTLVVKKK [_VFIGNLNTLVVK(Formyl)KK_]
[11]
  collision cross section: 499.94 Å²

## LTEKELAEAASK [_LTEK(Crotonyl)ELAEAASK_]
Charge state: 2, modification: Crotonyl
  collision cross section: 394.89 ± 2.4 Å²

## TSYAQHQQVR [_TSY(Phospho (Y))AQHQQVR_]
[6]
  collision cross section: 370.43 ± 0.064 Å²
Charge state: 3, modification: Phospho (Y)
  collision cross section: 475.13 ± 0.98 Å²
